Measurements published in patent publication US20090035322A1 (Regeneron, published 2009).

Assays:
human CD20 [1] = target: T1, human CD20 (human, UniProt P11836 1-297); assay: cell-based or functional assay
T1 sequence: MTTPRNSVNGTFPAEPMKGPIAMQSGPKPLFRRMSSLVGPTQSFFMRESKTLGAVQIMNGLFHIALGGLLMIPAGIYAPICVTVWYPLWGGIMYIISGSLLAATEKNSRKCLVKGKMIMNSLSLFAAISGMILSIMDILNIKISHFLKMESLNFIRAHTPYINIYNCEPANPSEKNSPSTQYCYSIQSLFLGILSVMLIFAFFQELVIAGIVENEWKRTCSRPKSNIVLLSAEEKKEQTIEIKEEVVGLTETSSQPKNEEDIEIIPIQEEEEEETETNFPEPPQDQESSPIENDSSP

human CD20 [2] = target: T1, human CD20; assay: cell-based or functional assay; remark: listed apart in the source
[3] = target: T2, mutant human CD20 #1 (Y77F) (human, UniProt P11836 1-297); assay: FACS, mutant-hCD20 MG87 cells; 100%=best antibody
T2 construct: Human residues replaced by mouse residues; stably expressed on MG87 cells
T2 sequence: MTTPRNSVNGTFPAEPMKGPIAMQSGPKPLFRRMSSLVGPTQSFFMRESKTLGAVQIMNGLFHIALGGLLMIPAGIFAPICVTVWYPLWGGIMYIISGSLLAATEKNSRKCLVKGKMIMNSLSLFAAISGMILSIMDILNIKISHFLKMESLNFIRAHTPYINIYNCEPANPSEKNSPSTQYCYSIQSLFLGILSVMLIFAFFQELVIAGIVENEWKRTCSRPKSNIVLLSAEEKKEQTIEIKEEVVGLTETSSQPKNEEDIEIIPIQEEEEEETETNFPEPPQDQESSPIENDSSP
Method: (§1) Briefly, approximately 1×10⁶ cells from each stably transfected cell line expressing a mutant human CD20 were collected and incubated with each anti-human antibody, at 10 μg/ml, on ice for 1 hr, followed by incubation with APC-conjugated goat anti-human IgG (Jackson Immunolabs), at 10 μg/ml, on ice for 45 min. For each antibody, binding to each mutant human CD20 was assessed by flow cytometry.

[4] = target: T3, mutant human CD20 #3 (A170S, P172S) (human, UniProt P11836 1-297); assay: FACS, mutant-hCD20 MG87 cells; 100%=best antibody
T3 construct: Stably expressed on MG87 cells
T3 chain: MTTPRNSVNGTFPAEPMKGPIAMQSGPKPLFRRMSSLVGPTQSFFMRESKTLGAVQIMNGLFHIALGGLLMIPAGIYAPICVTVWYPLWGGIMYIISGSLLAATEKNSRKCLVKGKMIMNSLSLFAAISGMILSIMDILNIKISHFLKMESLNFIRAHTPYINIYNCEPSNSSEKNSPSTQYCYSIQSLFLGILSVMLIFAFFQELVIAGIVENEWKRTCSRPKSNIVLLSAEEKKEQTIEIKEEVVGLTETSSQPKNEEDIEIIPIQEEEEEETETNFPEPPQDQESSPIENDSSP
Method: as §1

[5] = target: T4, mutant human CD20 #5 (P172S) (human, UniProt P11836 1-297); assay: FACS, mutant-hCD20 MG87 cells; 100%=best antibody
T4 construct: Stably expressed on MG87 cells
T4 sequence: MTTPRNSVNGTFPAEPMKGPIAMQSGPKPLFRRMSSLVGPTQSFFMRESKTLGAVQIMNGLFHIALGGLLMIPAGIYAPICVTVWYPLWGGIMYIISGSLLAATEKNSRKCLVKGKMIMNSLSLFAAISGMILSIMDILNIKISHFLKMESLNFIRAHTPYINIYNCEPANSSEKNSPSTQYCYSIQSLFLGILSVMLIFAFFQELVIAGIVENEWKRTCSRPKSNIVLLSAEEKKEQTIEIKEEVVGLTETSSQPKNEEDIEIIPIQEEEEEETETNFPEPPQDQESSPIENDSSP
Method: as §1

[6] = target: T5, mutant human CD20 #6 (Y77F, N166D) (human, UniProt P11836 1-297); assay: FACS, mutant-hCD20 MG87 cells; 100%=best antibody
T5 construct: Stably expressed on MG87 cells
T5 chain: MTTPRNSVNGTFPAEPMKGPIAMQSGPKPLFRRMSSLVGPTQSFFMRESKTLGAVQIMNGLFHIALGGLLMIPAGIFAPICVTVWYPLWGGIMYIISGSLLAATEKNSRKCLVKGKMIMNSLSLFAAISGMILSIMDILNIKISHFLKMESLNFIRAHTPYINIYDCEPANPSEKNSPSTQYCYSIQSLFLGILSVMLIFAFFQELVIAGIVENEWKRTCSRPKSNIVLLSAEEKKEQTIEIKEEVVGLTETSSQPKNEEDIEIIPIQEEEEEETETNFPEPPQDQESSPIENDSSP
Method: as §1

[7] = target: T6, mutant human CD20 #8 (Y77F, N163D, N166D) (human, UniProt P11836 1-297); assay: FACS, mutant-hCD20 MG87 cells; 100%=best antibody
T6 construct: Stably expressed on MG87 cells
T6 chain: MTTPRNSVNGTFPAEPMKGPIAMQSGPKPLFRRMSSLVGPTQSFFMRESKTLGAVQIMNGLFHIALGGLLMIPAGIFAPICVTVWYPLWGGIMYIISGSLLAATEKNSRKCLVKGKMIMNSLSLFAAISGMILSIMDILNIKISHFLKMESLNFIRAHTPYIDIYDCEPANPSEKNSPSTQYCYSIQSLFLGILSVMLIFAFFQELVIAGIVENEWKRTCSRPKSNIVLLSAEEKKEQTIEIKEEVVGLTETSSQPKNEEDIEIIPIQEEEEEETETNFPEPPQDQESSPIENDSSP
Method: as §1

[8] = target: T7, mutant human CD20 #10 (A157V) (human, UniProt P11836 1-297); assay: FACS, mutant-hCD20 MG87 cells; 100%=best antibody
T7 construct: Stably expressed on MG87 cells
T7 sequence: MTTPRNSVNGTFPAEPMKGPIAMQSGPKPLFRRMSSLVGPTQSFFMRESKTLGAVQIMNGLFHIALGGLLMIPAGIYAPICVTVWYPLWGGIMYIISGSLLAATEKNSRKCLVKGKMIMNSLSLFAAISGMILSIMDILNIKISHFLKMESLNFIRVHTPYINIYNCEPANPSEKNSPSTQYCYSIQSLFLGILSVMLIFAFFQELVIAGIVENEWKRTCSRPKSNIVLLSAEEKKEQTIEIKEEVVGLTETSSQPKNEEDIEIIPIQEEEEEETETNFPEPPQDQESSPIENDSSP
Method: as §1

Row | Binder | CDC, Daudi EC50 (human CD20 [1]) [nM] | CDC, RL EC50 (human CD20 [1]) [nM] | ADCC EC50 (pM), Daudi + PBMC (human CD20 [2]) [pM] | Percent of Binding to Mutant Human CD20 [3] [%] | Percent of Binding to Mutant Human CD20 [4] [%] | Percent of Binding to Mutant Human CD20 [5] [%] | Percent of Binding to Mutant Human CD20 [6] [%] | Percent of Binding to Mutant Human CD20 [7] [%] | Percent of Binding to Mutant Human CD20 [8] [%]
1 | 7E1-13 (antibody, V domains shown, Fully human IgG, constant region not specified; also called 7E1-13N) VH: EVQLVESGGGLVQPGRSLRLSCTASGFTFGDFPMHWVRQAPGKGLEWVSGITWNSGSIVYADSVKGRFTISRDNAKNSLYLQMNSLRTEDTALYYCAKDSHYGSGNFYYYYYGMDVWGQGTTVTVSS VL: not shown | 1.59 | 5.81 | 2.14 | 94 | 95 | 85 | 1 | 0 | 92
2 | 3B9-10 (antibody, V domains shown, Fully human IgG, constant region not specified; also called 3B9-10N) VH: EVQLVESGGGLVQPGRSLRLSCVASGFTFNDYAMHWVRQAPGKGLEWVSVISWNSDSIGYADSVKGRFTISRDNAKNSLYLQMHSLRAEDTALYYCAKDNHYGSGSYYYYQYGMDVWGQGTTVTVSS VL: EIVMTQSPATLSVSPGERATLSCRASQSVSSNLAWYQQKPGQAPRLLIYGTSTRATGIPARFSGSGSGTEFTLTISSLQSEDFAVYYCQQYNNWPLTFGGGTKVEIK | 1.86 | 8.84 | 6.77 | 56 | 67 | 72 | 1 | 0 | 79
3 | 6F6-1 (antibody, V domains shown, Fully human IgG, constant region not specified; also called 6F6-1N) VH: AVQLVESGGGLVQPGRSLRLSCAASGFTFRDYAMHWVRQGPGKGLEWVSGISWNTDYIGYADSVKGRFTISRDNAKNSLYLQMNSLRPEDTALYYCAKDARYGRDNYYGMDVWGQGTTVTVSS VL: EIVMTQSPATLSVSPGERATLSCRASQSVSHNLAWYQQKPGQAPRLLIYGAYTRATGIPDRFSGTGSGTEFTLTISSLQSEDFAVFYCQQYNNWPLTFGGGTKVEIK | 0.56 | 1.2 | 5.15 | 100 | 100 | 100 | 16 | 0 | 98
4 | 9C3-8 (antibody, V domains shown, Fully human IgG, constant region not specified; also called 9C3-8N) VH: EVQLVESGGGLVQPGRSLRLSCAASGFSFHDYAMHWVRQAPGKGLEWVSGISWNSDSLGYADSVKGRFTISRDNAKNSLYLQMNSLRAEDTALYYCAKDNHYGSGSHYYYKYGMDVWGQGTTVTVSS VL: not shown | 2.22 | 11.1 | 11 | 36 | 84 | 76 | 0 | 0 | 77
5 | 9E4-20 (antibody, V domains shown, Fully human IgG, constant region not specified; also called 9E4-20N) VH: EVQLVESGGGLVQPGRSLRLSCAASGFTFYDYAMHWVRQAPGKGLEWVSGISWNSDYIGYADSVKGRFTISRDNAKNSLYLQMNSLRAEDTALYYCAKDARYGRNNYYGMDVWGPGTTVTVSS VL: not shown | 1.53 | 1.7 | 2.37 | 14 | 57 | 57 | 1 | 0 | 76
6 | 8G6-5 (antibody, V domains shown, Fully human IgG, constant region not specified; also called 8G6-5N) VH: EVQLAESGGDLVQSGRSLRLSCAASGITFHDYAMHWVRQPPGKGLEWVSGISWNSDYIGYADSVKGRFTISRDNAKKSLYLQMNSLRPDDTALYYCVKDFHYGSGSNYGMDVWGQGTTVTVSP VL: EIVMTQSPATLSMSPGERATLSCRASQSVSRNLAWYQQKVGQAPRLLISGASTRATGIPARFSGSGSGTEFTLTINSLQSEDFAVYYCQQSNDWPLTFGQGTRLEIK | 0.21 | 1.06 | 14.8 | 86 | 65 | 76 | 5 | 0 | 96
7 | 10F2-13 (antibody, V domains shown, Fully human IgG, constant region not specified; also called 10F2-13N; ab 10F2-13) VH: EEQLVESGGDLVQPGRSLRLSCAASGFTFHDYTMHWVRQAPGKGLEWVSGISWNSGSLGYADSVKGRFTISRDNAKKSLYLQMNSLRAEDTALYYCAKDPSYGSGSYHSYYGMDVWGQGTTVTVSS VL: EIVLTQSPATLSLSPGERATLSCWASQSISRYLVWYQQKCGQAPRLLIYEASKRATGIPVRFSGSGSGTDFTLTISSLESEDFAVYYCQQRFNWPLTFGGGTKVEIK | 0.17 | 0.36 | 6.68 | 79 | 55 | 69 | 1 | 0 | 87
